Where two headings read alike, the source gives them in different places.
How the values were obtained:
[1] = target: T1, R-PE labeled human PD-L1-Fc chimera protein (human, UniProt Q9NZQ7 19-239, conjugated to R-phycoerythrin (R-PE)); experiment: flow cytometry, PD-1-transfected CHO-S cells; R-PE PD-L1-Fc 16.4 nM in the presence of the negative control ramucirumab 10 ug/ml
T1 construct: bought from R&D Systems; not shown: Fc of the commercial chimera

[2] = target: T2, His-tagged human PD-1 ECD (human, UniProt Q15116 25-170); experiment: SPR, IgG captured, monovalent PD-1 ECD analyte
T2 construct: bought from Acro Biosystems; not shown: His tag
T2 sequence (Q15116 25-170): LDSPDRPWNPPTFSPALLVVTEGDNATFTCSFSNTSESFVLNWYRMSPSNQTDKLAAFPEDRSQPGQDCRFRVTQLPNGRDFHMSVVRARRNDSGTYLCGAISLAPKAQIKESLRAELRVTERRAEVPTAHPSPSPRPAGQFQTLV

[3] = target: T3, His-tagged mouse PD-1 ECD (mouse (Mus musculus), UniProt Q02242 25-169); experiment: SPR, IgG captured, monovalent PD-1 ECD analyte
T3 construct: bought from Sino Biologicals; not shown: His tag
T3 sequence: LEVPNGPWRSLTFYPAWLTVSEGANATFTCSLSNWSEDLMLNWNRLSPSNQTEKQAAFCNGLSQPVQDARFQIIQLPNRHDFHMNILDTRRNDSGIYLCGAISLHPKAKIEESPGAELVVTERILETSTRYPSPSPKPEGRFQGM

[4] = target: T2, His-tagged human PD-1 ECD; experiment: SPR, IgG captured, monovalent PD-1 ECD analyte; remark: listed apart in the source
Procedure: Kinetic binding analysis of the purified anti-PD-1 antibody repertoire was performed on an XPR-36 surface plasmon resonance (SPR) biosensor (Bio-Rad, USA).
(§1) The lowest possible anti-PD-1 antibody density was applied to prevent non-specific binding and mass transport limitation. For measuring antibody kinetics, anti-PD-1 antibodies were adjusted to a concentration of 1.0 μg/ml and captured on anti-human IgG Fc surfaces generated by immobilizing approximately 1000 RU of a monoclonal anti-human Fc antibody (Biacore, Denmark). […] The recorded binding responses were fitted to a simple Langmuir 1:1 binding model for calculation of the on-rate (kₒₙ or ka), off-rate (koff or kd) and affinity (KD) constants using double referencing.

[5] = target: T4, His-tagged cynomolgus PD-1 ECD (cynomolgus (Macaca fascicularis), UniProt Q15116 25-170 (human entry)); experiment: SPR, IgG captured, monovalent PD-1 ECD analyte
T4 construct: bought from Acro Biosystems; not shown: His tag
T4 chain: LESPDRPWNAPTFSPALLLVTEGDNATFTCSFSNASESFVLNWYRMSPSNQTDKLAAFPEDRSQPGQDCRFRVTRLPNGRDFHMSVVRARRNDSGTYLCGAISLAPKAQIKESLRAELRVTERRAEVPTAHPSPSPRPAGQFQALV

[6] = target: T3, His-tagged mouse PD-1 ECD; experiment: SPR, IgG captured, monovalent PD-1 ECD analyte; remark: listed apart in the source
Procedure: as §1
His-tagged mouse and rat PD-1 ECD were purchased from Sino Biologicals.

T1 sequence (Q9NZQ7 19-239, change not shown): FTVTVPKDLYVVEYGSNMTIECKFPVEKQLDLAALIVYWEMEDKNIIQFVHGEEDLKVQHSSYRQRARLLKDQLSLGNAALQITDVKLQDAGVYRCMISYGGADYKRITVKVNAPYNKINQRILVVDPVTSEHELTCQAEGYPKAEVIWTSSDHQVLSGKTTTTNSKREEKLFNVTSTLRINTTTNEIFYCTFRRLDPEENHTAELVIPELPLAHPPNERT

B1: cyno PD1 (receptor)
receptor: LESPDRPWNAPTFSPALLLVTEGDNATFTCSFSNASESFVLNWYRMSPSNQTDKLAAFPEDRSQPGQDCRFRVTRLPNGRDFHMSVVRARRNDSGTYLCGAISLAPKAQIKESLRAELRVTERRAEVPTAHPSPSPRPAGQFQALVVGVVGGLLGSLVLLVWVLAVICSRAAQGTIEARRTGQPLKEDPSAVPVFSVDYGELDFQWREKTPEPPAPCVPEQTEYATIVFPSGLGTSSPARRGSADGPRSPRPLRPEDGHCSWPL
notes: also called cynomolgus PD-1 expressed on CFSE-stained CHO-S cells
- binding result [1]: binds

B2: 12819.15384 (antibody, human IgG1, lambda, L234A L235A)
heavy: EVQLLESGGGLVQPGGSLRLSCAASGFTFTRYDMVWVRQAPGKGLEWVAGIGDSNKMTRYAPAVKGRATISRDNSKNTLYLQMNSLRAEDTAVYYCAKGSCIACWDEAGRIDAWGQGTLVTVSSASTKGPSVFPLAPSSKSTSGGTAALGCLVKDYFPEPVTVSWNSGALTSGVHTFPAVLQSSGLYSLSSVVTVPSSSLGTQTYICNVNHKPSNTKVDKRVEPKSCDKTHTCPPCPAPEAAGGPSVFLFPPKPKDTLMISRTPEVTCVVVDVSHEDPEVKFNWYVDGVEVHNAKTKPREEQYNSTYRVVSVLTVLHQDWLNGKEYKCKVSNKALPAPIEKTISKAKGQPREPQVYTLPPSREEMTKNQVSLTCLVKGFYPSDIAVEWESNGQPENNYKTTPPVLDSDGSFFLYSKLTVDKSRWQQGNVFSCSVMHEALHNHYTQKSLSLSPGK
light: SYELTQDPAVSVALGQTVRITCSGGGSYDGSSYYGWYQQKPGQAPVTVIYNNNNRPSDIPDRFSGSSSGNTASLTITGAQAEDEADYYCGSYDRPETNSDYVGMFGSGTKVTVLGQPKANPTVTLFPPSSEELQANKATLVCLISDFYPGAVTVAWKADGSPVKAGVETTKPSKQSNNKYAASSYLSLTPEQWKSHRSYSCQVTHEGSTVEKTVAPTECS
notes: humanized, IgG1 LALA, lambda
- Kd [2]: 0.028 nM
- koff [2]: 8.85e-06 s⁻¹
- kon [2]: 326000 M⁻¹ s⁻¹
- Kd [3]: 0.809 nM
- koff [3]: 3.04e-05 s⁻¹
- kon [3]: 37100 M⁻¹ s⁻¹
- Kd [4]: 0.02 nM
- koff [4]: 2.3e-05 s⁻¹
- kon [4]: 1.1e+06 M⁻¹ s⁻¹
- Kd [5]: 0.005 nM
- koff [5]: 4.5e-06 s⁻¹
- kon [5]: 970000 M⁻¹ s⁻¹

B3: 12865.17150 (antibody, human IgG1, lambda, L234A L235A, V domains shown)
VH: EVQLLESGGGLVQPGGSLRLSCAASGFDFSDHGMQWVRQAPGKGLEYVGVIDTTGRYTYYAPAVKGRATISRDNSKNTLYLQMNSLRAEDTAVYYCAKTTCVGGYLCNTVGSIDAWGQGTLVTVSS
VL: SYELTQDPAVSVALGQTVRITCSGGGSSSYYGWYQQKPGQAPVTVIYDDTNRPSGIPDRFSGSSSGNTASLTITGAQAEDEADYYCGGYEGSSHAGIFGSGTKVTVLG
- binding result [6]: no binding
